Broadly, the Kd is a measure of binding affinity in units of concentration. Lower therefore signals higher affinity.

Two molecules from publication PMC9949253 (2023) can be followed below.

The target of this test is BTN3A1 full intracellular domain (BFI) (Homo sapiens, UniProt O00481). The experiment in a line: ITC. For orientation: In ITC the heat of successive injections is recorded.
Sequence of BTN3A1 full intracellular domain (BFI) (O00481 272-513): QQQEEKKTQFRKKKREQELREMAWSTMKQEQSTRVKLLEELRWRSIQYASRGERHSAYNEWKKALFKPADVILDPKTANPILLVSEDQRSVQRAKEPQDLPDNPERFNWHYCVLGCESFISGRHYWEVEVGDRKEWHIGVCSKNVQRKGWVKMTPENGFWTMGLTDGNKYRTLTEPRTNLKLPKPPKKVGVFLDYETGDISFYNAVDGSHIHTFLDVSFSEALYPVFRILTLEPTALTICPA

B1: BTN2A1 ID271 (protein)
chain: KLQKEKKILSGEKEFERETREIALKELEKERVQKEEELQVKEKLQEELRWRRTFLHAVDVVLDPDTAHPDLFLSEDRRSVRRCPFRHLGESVPDNPERFDSQPCVLGRESFASGKHYWEVEVENVIEWTVGVCRDSVERKGEVLLIPQNGFWTLEMHKGQYRAVSSPDRILPLKESLCRVGVFLDYEAGDVSFYNMRDRSHIYTCPRSAFSVPVRPFFRLGCEDSPIFICPALTGANGVTVPEEGLTLHRVGTHQSL
modifications: HMBPP
As for B1, the affinity, expressed as Kd, was 0.78 µM.

B2: BTN2A1 ID271 (protein)
chain: B1 chain
modifications: 4-M-HMBPP
For the molecule B2, the dissociation constant (Kd) is 190 µM.
